Measurements from PMC9798723.

How the values were obtained:
[1] = molecular target: synthetic Aβ42CC (amyloid-β 1-42 peptide with A21C/A30C mutations) (human); experiment: SEC-MALS; synthetic Aβ42CC 0.6 mg/mL, 50 min at RT after neutralisation to pH 7.2, then frozen; TSK-GEL G4000SWxl, 20 mM sodium phosphate, 150 mM NaCl, pH 7.4, autosampler 5 °C
[2] = molecular target: synthetic Aβ42CC (amyloid-β 1-42 peptide with A21C/A30C mutations) (human); experiment: SEC-MALS; oligomeric preparations (synthetic Aβ42CC 8 h or 24 h at RT at pH 7.2, or aggregated at RT in PBS at 0.6 mg/mL; recombinant Aβ42CC after concentration or incubation); TSK-GEL G4000SWxl, 20 mM sodium phosphate, 150 mM NaCl, pH 7.4, autosampler 5 °C

synthetic Aβ42CC (amyloid-β 1-42 peptide with A21C/A30C mutations)
percent of the peptide present as 104 kDa oligomers [1]: 20% | oligomer content [2]: > 94%
